Publication PMC5944358 (The Biochemical journal, 2018)
Residue numbers refer to the chain shown, from its start. Numbers in names are those of the source. Read-outs that look alike come from different tables or passages of the source.

B1: cyanovirin-N (CVN) (natural protein)
chain: LGKFSQTCYNSAIQGSVLTSTCERTNGGYNTSSIDLNSVIENVDGSLKWQPSNFIETCRNTQLAGSSELAAECKTRAQQFVSTKINLDDHIANIDGTLKYE
B2: Microvirin (MVN) (natural protein)
chain: MPNFSHTCSSINYDPDSTILSAECQARDGEWLPTELRLSDHIGNIDGELQFGDQNFQETCQDCHLEFGDGEQSVWLVCTCQTMDGEWKSTQILLDSQIDNNDSQLEIG
B3: MVN_Q81K (natural protein)
chain: B2 chain with Q81K
B4: MVN_G43E/Q81K/M83R/G85Q (natural protein)
chain: B2 chain with G43E, Q81K, M83R, G85Q
B5: MVN_G85Q (natural protein)
chain: B2 chain with G85Q
B6: MVN_G43E (natural protein)
chain: B2 chain with G43E
B7: MVN_Q81K/G85Q (natural protein)
chain: B2 chain with Q81K, G85Q
B8: MVN(Q81K/M83R) (natural protein)
chain: B2 chain with Q81K, M83R
B9: MVN_Q81K/M83R/G85Q (natural protein)
chain: B2 chain with Q81K, M83R, G85Q
B10: MVN_G43E/G85Q (natural protein)
chain: B2 chain with G43E, G85Q
B11: MVN_M83R (natural protein)
chain: B2 chain with M83R
B12: MVN_G43E/Q81K (natural protein)
chain: B2 chain with G43E, Q81K
B13: MVN_G43E/M83R (natural protein)
chain: B2 chain with G43E, M83R

How the values were obtained:
HIV-1 YU2 gp120 [1] = target: T1, HIV-1 YU2 gp120 (HIV-1 YU2, UniProt P35961 32-498); experiment: SPR
HIV-1 YU2 gp120 [2] = target: T1, HIV-1 YU2 gp120; experiment: ELISA
HIV-1 YU2 gp120 [3] = target: T1, HIV-1 YU2 gp120; experiment: ITC
HIV-1 YU2 gp120 [4] = target: T1, HIV-1 YU2 gp120; experiment: SPR; remark: listed apart in the source

Binder | Kd (HIV-1 YU2 gp120 [1]) [nM] | koff (HIV-1 YU2 gp120 [1]) [s⁻¹] | kon (HIV-1 YU2 gp120 [1]) [M⁻¹ s⁻¹] | IC50 (HIV-1 YU2 gp120 [2]) [nM] | Kd (HIV-1 YU2 gp120 [3]) [nM] | stoichiometry N (HIV-1 YU2 gp120 [3]) | koff (HIV-1 YU2 gp120 [4]) [s⁻¹] | kon (HIV-1 YU2 gp120 [4]) [M⁻¹ s⁻¹] | Kd (HIV-1 YU2 gp120 [4]) [nM] | k1 (step 1, association) (HIV-1 YU2 gp120 [4]) [M⁻¹ s⁻¹] | k2 (step 2, forward) (HIV-1 YU2 gp120 [4]) [M⁻¹ s⁻¹] | k-1 (step 1, dissociation) (HIV-1 YU2 gp120 [4]) [s⁻¹] | k-2 (step 2, reverse) (HIV-1 YU2 gp120 [4]) [s⁻¹]
B1 | 8.65 | 1.48e-05 | 1710 |  |  |  |  |  |  |  |  |  | 
B2 | 120 |  |  | 68 ± 8 | 225 ± 10 | 1.29 ± 0.04 protein:gp120 | 0.000445 | 4160 |  |  |  |  | 
B3 |  |  |  |  |  |  | 0.000368 | 9180 | 45 | 1.73e+06 | 0.0048 | 0.16 | 0.0023
B4 |  |  |  |  |  |  | 0.000156 | 1490 | 100 | 240000 | 0.0063 | 0.078 | 0.002
B5 |  |  |  |  |  |  | 0.000191 | 2960 | 72 | 290000 | 0.0089 | 0.071 | 0.0027
B6 |  |  |  |  |  |  | 0.00061 | 2020 | 360 | 340000 | 0.0049 | 0.244 | 0.0025
B7 |  |  |  |  |  |  | 9.4e-05 | 880 | 101 | 160000 | 0.0041 | 0.053 | 0.00178
B8 |  |  |  |  | 75 ± 11 | 1.31 ± 0.132 protein:gp120 | 3.3e-05 | 1880 | 21 | 310000 | 0.0051 | 0.03 | 0.0011
B9 |  |  |  |  |  |  | 0.000232 | 3240 | 77 | 340000 | 0.0055 | 0.058 | 0.0041
B10 |  |  |  |  |  |  | 0.000122 | 710 | 180 | 90000 | 0.0077 | 0.051 | 0.0024
B11 |  |  |  |  |  |  | 0.000145 | 2990 | 52 | 290000 | 0.0076 | 0.05 | 0.0029
B12 |  |  |  |  |  |  | 0.000173 | 1660 | 120 | 180000 | 0.0082 | 0.064 | 0.0027
B13 |  |  |  |  |  |  | 0.000103 | 980 | 130 | 110000 | 0.0075 | 0.045 | 0.0023
